Experiment [1] has as its target myosin-Va GTD (Homo sapiens) (UniProt Q9Y4I1). The settings on record: cited from earlier work.
For experiment [2] the target is unchanged. As to conditions: cited from earlier work. The source holds these as a separate data set.
Another experiment concerns the target Mlph RBD (Homo sapiens) (UniProt Q9BV36). As to conditions: cited from earlier work.
The next experiment concerns the target T1, GST-Rab27a-Q78L (UniProt P23640 1-221, Q78L).
T1 construct: Rab27a; rat Rab27a is stated only for the BiFC constructs; also called GTP-locked Rab27a-Q78L; active Rab27a-Q78L; source: E. coli Rosetta, purified (GSH-Sepharose 4B, size-exclusion chromatography)
T1 sequence (looked up): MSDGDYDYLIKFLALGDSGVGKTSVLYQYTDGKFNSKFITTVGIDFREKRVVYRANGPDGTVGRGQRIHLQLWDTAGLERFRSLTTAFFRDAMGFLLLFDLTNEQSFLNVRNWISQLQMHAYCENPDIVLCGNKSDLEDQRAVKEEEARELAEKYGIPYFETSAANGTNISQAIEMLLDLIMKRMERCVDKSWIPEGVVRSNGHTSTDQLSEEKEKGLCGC
The experiment is described as follows: pull-down; quantitative GST pull-down: increasing concentrations of GST-Rab27a-Q78L on beads, HEK293 lysate (GFP-SPIRE1-MSFH ~50 nM); GFP depletion from the supernatant measured by fluorospectrometry at 20 °C; fraction bound fitted for Kd.

The next experiment addresses T2, vYCE-Rab27a Q78L (rat, UniProt P23640 1-221, Q78L).
T2 construct: rat Rab27a; also called Q78L mutant; source: HEK293a, transfected, in living cells
T2 sequence (looked up): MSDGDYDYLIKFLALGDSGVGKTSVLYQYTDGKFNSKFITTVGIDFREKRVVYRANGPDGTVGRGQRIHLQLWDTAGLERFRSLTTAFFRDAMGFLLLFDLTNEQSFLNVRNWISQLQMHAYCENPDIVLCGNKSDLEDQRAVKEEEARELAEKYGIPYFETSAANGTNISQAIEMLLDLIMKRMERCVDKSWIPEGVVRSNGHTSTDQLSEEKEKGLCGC
The experiment is described as follows: split reporter (BiFC, NanoBiT); BiFC in living HEK293a cells: vYNE-SPIRE1/2 and vYCE-Rab27a co-expressed with mCherry; vYFP signal normalised to mCherry, 48 h after transfection. As to conditions: partners not purified.

The target of the next experiment is T3, vYCE-Rab27a wild type (rat, UniProt P23640 1-221).
T3 construct: rat Rab27a; also called wild-type Rab27a; WT; source: HEK293a, transfected, in living cells
T3 sequence (looked up): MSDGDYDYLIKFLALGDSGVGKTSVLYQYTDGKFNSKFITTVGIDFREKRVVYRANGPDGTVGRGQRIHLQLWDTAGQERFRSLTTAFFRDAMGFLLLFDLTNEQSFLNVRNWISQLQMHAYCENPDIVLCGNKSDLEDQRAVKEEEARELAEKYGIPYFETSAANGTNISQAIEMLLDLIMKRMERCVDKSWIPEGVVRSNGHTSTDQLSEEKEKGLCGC
The description is as above. As to conditions: partners not purified.

Like-named read-outs stand apart in the source and are kept apart here.

The source of these data is paper PMC7359353, “Rab27a co-ordinates actin-dependent transport by controlling organelle-associated motors and track assembly proteins” (Nature Communications, 2020).

myosin-Va GTD (Homo sapiens), sequence (Q9Y4I1 1448-1855): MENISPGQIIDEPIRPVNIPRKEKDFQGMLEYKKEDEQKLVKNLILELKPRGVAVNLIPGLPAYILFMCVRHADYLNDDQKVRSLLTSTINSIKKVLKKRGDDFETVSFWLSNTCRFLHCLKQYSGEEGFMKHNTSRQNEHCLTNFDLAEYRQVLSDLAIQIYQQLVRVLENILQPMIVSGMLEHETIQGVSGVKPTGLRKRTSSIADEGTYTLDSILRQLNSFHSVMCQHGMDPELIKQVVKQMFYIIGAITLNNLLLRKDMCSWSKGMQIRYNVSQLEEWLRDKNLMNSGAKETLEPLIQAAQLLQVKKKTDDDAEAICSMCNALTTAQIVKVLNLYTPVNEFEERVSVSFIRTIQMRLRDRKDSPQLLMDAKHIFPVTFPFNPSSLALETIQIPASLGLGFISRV
Mlph RBD (Homo sapiens), sequence (Q9BV36 4-124): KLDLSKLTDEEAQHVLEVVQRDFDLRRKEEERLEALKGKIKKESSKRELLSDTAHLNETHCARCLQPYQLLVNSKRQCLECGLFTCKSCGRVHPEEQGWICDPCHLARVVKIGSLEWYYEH

What is called Kd is the free concentration of one partner at which half of the binding sites on the other are occupied at equilibrium, for simple one-to-one binding. With SPIRE2 (from UniProt Q8WWL2), the Kd in experiment [1] is 900 nM. Regarding Mlph (from UniProt Q9BV36), the Kd in experiment [2] was 500 nM. Rab27a (from UniProt P51159): the Kd with Mlph RBD (Homo sapiens) was 112 nM. Turning to GFP-Mlph-RBD (domain or fragment), the Kd in the experiment with GST-Rab27a-Q78L stood at 143 nM.

B1: GFP-SPIRE1-MSFH (domain or fragment)
chain: PEEIRRSRLDVTTPESTKNLVESSMVNGGLTSQTKENGLSTSQQVPAQRKKLLRAPTLAELDSSESEEETLHKSTSSSSVSPSFPEEPVLEAVSTRKKPPKFLPISSTPQPERRQPPQRRHSIEKETPTNVRQFLPPSRQSSRSLEEFCYPVECLALTVEEVMHIRQVLVKAELEKYQQYKDIYTALKKGKLCFCCRTRRFSFFTWSYTCQFCKRPVCSQCCKKMRLPSKPYSTLPIFSLGPSALQRGESSMRSEKPSTAHHRPLRSIARFSSKSKSMDKSDEELQFPKELMEDWSTMEVCVDCKKFISEIISSSRRSLVLANKRARLKRKTQSFYMSSPGPSEYCPSERTISEI
modifications: Limits are not in the text (Fig. 6a / Supplementary Table 9). By convention, the start is just after the last WH2 (ends at 386) and the end is the C-terminus. NM_020148.2 is taken as the 742-aa …
B1 came in with a Kd with GST-Rab27a-Q78L (one partner purified) of 707 ± 155 nM.

B2: vYNE-SPIRE2 (natural protein, human, UniProt Q8WWL2 1-714, looked up)
chain: MARAGSCGGAAAGAGRPEPWELSLEEVLKAYEQPLNEEQAWAVCFQGCRGLRGSPGRRLRDTGDLLLRGDGSVGAREPEAAEPATMVVPLASSEAQTVQSLGFAIYRALDWGLDESEERELSPQLERLIDLMANNDSEDSGCGAADEGYGGPEEEEEAEGVPRSVRTFAQAMRLCAARLTDPRGAQAHYQAVCRALFVETLELRAFLARVREAKEMLQKLREDEPHLETPRAELDSLGHTDWARLWVQLMRELRRGVKLKKVQEQEFNPLPTEFQLTPFEMLMQDIRARNYKLRKVMVDGDIPPRVKKDAHELILDFIRSRPPLKQVSERRLRPLPPKQRSLHEKILEEIKQERRLRPVRGEGWAARGFGSLPCILNACSGDAKSTSCINLSVTDAGGSAQRPRPRVLLKAPTLAEMEEMNTSEEEESPCGEVTLKRDRSFSEHDLAQLRSEVASGLQSATHPPGGTEPPRPRAGSAHVWRPGSRDQGTCPASVSDPSHPLLSNRGSSGDRPEASMTPDAKHLWLEFSHPVESLALTVEEVMDVRRVLVKAEMEKFLQNKELFSSLKKGKICCCCRAKFPLFSWPPSCLFCKRAVCTSCSIKMKMPSKKFGHIPVYTLGFESPQRVSAAKTAPIQRRDIFQSLQGPQWQSVEEAFPHIYSHGCVLKDVCSECTSFVADVVRSSRKSVDVLNTTPRRSRQTQSLYIPNTRTLDFK
notes: human SPIRE2, cDNA AJ422077; also called SPIRE2 (BiFC); source: HEK293a, transfected, in living cells; not shown: enhanced Venus YFP N-terminus fragment (amino acids 1-173)
Consider B2, for which the “mean normalised BiFC (% max)” value turned out to be 85.2 % max in the experiment with vYCE-Rab27a Q78L and 85.4 % max with vYCE-Rab27a wild type.

B3: vYNE-SPIRE1 (natural protein, human, UniProt Q08AE8-2 1-742, looked up)
chain: MAQAAGPAGGGEPRTEAVGGEGPREPGAAGGAAGGSRDALSLEEILRLYNQPINEEQAWAVCYQCCGSLRAAARRRQPRHRVRSAAQIRVWRDGAVTLAPAADDAGEPPPVAGKLGYSQCMETEVIESLGIIIYKALDYGLKENEERELSPPLEQLIDHMANTVEADGSNDEGYEAAEEGLGDEDEKRKISAIRSYRDVMKLCAAHLPTESDAPNHYQAVCRALFAETMELHTFLTKIKSAKENLKKIQEMEKSDESSTDLEELKNADWARFWVQVMRDLRNGVKLKKVQERQYNPLPIEYQLTPYEMLMDDIRCKRYTLRKVMVNGDIPPRLKKSAHEIILDFIRSRPPLNPVSARKLKPTPPRPRSLHERILEEIKAERKLRPVSPEEIRRSRLDVTTPESTKNLVESSMVNGGLTSQTKENGLSTSQQVPAQRKKLLRAPTLAELDSSESEEETLHKSTSSSSVSPSFPEEPVLEAVSTRKKPPKFLPISSTPQPERRQPPQRRHSIEKETPTNVRQFLPPSRQSSRSLEEFCYPVECLALTVEEVMHIRQVLVKAELEKYQQYKDIYTALKKGKLCFCCRTRRFSFFTWSYTCQFCKRPVCSQCCKKMRLPSKPYSTLPIFSLGPSALQRGESSMRSEKPSTAHHRPLRSIARFSSKSKSMDKSDEELQFPKELMEDWSTMEVCVDCKKFISEIISSSRRSLVLANKRARLKRKTQSFYMSSPGPSEYCPSERTISEI
notes: human SPIRE1, cDNA NM_020148.2; also called SPIRE1 (BiFC); source: HEK293a, transfected, in living cells; not shown: enhanced Venus YFP N-terminus fragment (amino acids 1-173)
B3: the “mean normalised BiFC (% max)” value came to 75.2 % max with vYCE-Rab27a Q78L and 89.3 % max with vYCE-Rab27a wild type.
